Assay results as given in article PMC7335907.

Target: small laccase from Streptomyces coelicolor (SLAC), T1 copper-depleted mutant C288S (SLAC-T1D) (Streptomyces coelicolor) (UniProt Q9XAL8)
Test: SEC-MALS

small laccase from Streptomyces coelicolor (SLAC), T1 copper-depleted mutant C288S (SLAC-T1D) (from UniProt Q9XAL8 1-343) (enzyme)
stoichiometry N: 3
